Patent US20220267469A1 (LIPUM, published 2022)

T1: Mouse BSSL, recombinant (mouse, UniProt Q64285 21-599)
T1 construct: Bought (R&D Systems, Cat. no 5658-CE); also called mBSSL; murine BSSL
T1 sequence: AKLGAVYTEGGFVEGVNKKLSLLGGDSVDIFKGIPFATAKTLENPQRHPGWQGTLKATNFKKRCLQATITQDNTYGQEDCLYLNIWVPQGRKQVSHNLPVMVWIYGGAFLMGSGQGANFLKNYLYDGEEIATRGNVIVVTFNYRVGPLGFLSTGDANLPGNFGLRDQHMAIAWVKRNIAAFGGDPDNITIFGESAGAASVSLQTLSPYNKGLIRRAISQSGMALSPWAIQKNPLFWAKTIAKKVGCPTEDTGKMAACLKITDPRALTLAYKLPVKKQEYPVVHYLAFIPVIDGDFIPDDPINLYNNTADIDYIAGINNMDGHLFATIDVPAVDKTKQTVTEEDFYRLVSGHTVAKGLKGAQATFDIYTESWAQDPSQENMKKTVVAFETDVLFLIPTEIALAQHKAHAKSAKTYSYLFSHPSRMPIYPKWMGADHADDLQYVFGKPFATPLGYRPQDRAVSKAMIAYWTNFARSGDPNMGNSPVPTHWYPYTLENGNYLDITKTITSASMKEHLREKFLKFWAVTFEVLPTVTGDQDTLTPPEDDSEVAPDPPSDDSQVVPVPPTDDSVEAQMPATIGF

T2: Biotinylated human BSSL (human, UniProt P19835 21-753, Biotinylated on glycosacarides, 30-40 biotin/BSSL)
T2 construct: hBSSL biotinylated in house; also called b-hBSSL; human BSSL-biotin
T2 sequence: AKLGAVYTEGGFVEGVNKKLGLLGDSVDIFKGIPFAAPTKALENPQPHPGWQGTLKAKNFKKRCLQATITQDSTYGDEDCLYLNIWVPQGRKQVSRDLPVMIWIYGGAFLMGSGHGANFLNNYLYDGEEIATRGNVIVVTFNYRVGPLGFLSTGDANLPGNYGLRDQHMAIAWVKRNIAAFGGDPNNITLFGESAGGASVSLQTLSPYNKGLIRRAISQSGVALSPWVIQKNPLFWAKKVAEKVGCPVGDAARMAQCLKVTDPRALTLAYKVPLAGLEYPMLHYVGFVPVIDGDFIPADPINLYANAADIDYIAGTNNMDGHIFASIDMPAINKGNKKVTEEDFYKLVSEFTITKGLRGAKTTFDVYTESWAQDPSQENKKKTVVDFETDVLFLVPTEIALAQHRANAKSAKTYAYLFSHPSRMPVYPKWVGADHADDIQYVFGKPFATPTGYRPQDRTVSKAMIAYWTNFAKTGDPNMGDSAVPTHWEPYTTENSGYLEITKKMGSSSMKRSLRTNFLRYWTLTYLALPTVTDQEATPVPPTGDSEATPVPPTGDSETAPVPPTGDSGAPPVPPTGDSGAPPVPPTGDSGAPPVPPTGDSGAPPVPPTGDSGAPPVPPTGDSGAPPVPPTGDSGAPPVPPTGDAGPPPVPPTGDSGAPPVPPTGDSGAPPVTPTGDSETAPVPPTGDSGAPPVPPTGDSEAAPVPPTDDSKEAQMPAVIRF

B1: AS20 hIgG1 LALA-PG (antibody)
heavy: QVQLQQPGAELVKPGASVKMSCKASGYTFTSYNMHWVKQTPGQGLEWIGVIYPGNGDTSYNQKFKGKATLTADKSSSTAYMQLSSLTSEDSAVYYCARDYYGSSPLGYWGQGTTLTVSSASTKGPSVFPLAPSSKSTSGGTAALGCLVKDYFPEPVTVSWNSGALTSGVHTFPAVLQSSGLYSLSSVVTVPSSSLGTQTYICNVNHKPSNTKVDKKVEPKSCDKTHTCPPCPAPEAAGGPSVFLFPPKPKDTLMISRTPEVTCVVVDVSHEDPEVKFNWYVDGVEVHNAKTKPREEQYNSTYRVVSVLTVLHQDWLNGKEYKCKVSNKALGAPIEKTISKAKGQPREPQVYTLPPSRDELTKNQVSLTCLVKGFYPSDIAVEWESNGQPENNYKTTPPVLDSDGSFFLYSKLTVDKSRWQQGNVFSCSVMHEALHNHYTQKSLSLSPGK
light: QIVLTQSPAVMSASPGEKVTMTCSASSSISYMHWYQQKPGTSPKRWIYDTSKLASGVPARFSGSGSGTSYSLTISSMEAEDAATYYCHQRSSYPTFGGGTKLEIKRTVAAPSVFIFPPSDEQLKSGTASVVCLLNNFYPREAKVQWKVDNALQSGNSQESVTEQDSKDSTYSLSSTLTLSKADYEKHKVYACEVTHQGLSSPVTKSFNRGEC
notes: also called AS20 IgG1 LALA-PG
B2: Human BSSL (bile salt-stimulated lipase), native (enzyme)
chain: T2 sequence
notes: Native full-length protein purified from human milk (Astra Hässle AB); also called hBSSL; non-biotinylated human BSSL
B3: S-SL048-106 hIgG4 S228P (antibody, V domains shown)
VH: QVQLVQSGAEVKKPGASVKVSCKASGYTFTSYNMHWVRQAPGQGLEWIGVIYPGDGSTSYNQKFQGRVTMTRDTSTSTVYMELSSLRSEDTAVYYCARDYYGSSPLGYWGQGTLVTVSS
VL: DIQMTQSPSSLSASVGDRVTITCSASSSISYMNWYQQKPGKAPKLLIYATSKLPSGVPSRFSGSGSGTDFTLTISSLQPEDFATYYCHQRSSTPTFGQGTKLEIKR
notes: also called mAb106
B4: AS20 scFv (scFv, V domains shown)
VH: QVQLQQPGAELVKPGASVKMSCKASGYTFTSYNMHWVKQTPGQGLEWIGVIYPGNGDTSYNQKFKGKATLTADKSSSTAYMQLSSLTSEDSAVYYCARDYYGSSPLGYWGQGTTLTVSS
VL: QIVLTQSPAVMSASPGEKVTMTCSASSSISYMHWYQQKPGTSPKRWIYDTSKLASGVPARFSGSGSGTSYSLTISSMEAEDAATYYCHQRSSYPTFGGGTKLEIK

Key:
Mouse BSSL, recombinant [1] = target: T1, Mouse BSSL, recombinant; experiment: SPR steady state, antibody immobilised
Protocol: (§1) Single cycle kinetics was used to measure the affinity of the antibodies. AS20 hIgG1 LALA-PG and anti-NP hIgG1 LALA-PG were immobilized on a CM5 S sensor chip by primary amine coupling using NHS-EDC chemistry. Five different concentrations of antigen (1:3 dilutions starting from 50 nM for hBSSL and 1:2 dilutions starting from 800 nM for mBSSL) were injected over the surface. The sensor chip surface was regenerated with 10 mM glycine-HCl pH 2.1. Obtained single cycle kinetic data was fitted to a Langmuir 1:1 binding model and kinetic parameters were retrieved using the software BlAevaluation. For mBSSL, a steady state analysis was also performed by plotting the response level at equilibrium against each concentration, and KD values were retrieved by the BlAevalution software.

[2] = target: B2; experiment: SPR single cycle kinetics, antibody immobilised
Protocol: as §1
A single cycle kinetic SPR approach was used to determine the affinity of the IgG.

AS20 scFv = target: B4; experiment: HTRF competition against 5 nM b-hBSSL for 2.5 nM AS20 scFv
Protocol: In order to study the interaction between AS20 scFv and native mouse BSSL, a competition assay was developed. Detection of binding was enabled through donor molecule terbium-conjugated α-FLAG antibody (Cisbio #611FG2TL), which interacts with the C-terminal located FLAG-tag of the scFv, and acceptor molecule streptavidin-conjugated XL665 (Cisbio #610SAXL), which interacts with the biotin-moieties on human BSSL.
2.5 nM of AS20 scFv was pre-incubated for 2 hours with the mouse or human orthologue of BSSL, after which 5 nM b-hBSSL and the FRET donor and acceptor molecules were added. The mixture was finally incubated at room temperature for 16 hours and the binding signal (665 nm) and background/noise signal (615 nm) was measured using EnVision (PerkinElmer). The experimental output, Delta R, was calculated for each point using four replicates and two blanks.

[3] = target: B2; experiment: cell-based or functional assay
[4] = target: B2; experiment: cell-based or functional assay; remark: listed apart in the source
[5] = target: B2; experiment: SPR single cycle kinetics, hIgG4 S228P captured by anti-Fab
In short: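 hIgG4 S228P captured on an immobilized anti-Fab surface; five BSSL concentrations injected, 1:5 dilutions from 50 nM (human) or from 500 nM (mouse). Human BSSL: single-cycle kinetics, 1:1 fit. Mouse BSSL: KD from steady-state equilibrium response versus concentration. Regeneration with 10 mM glycine-HCl pH 2.1.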

Biotinylated human BSSL [6] = target: T2, Biotinylated human BSSL; experiment: flow cytometry displacement assay; 1.5 ug antibody, 1 ug b-hBSSL
In short: (§2)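 Antibody (0.5–3.0 μg per reaction) preincubated with 1 μg biotinylated human BSSL in PBS pH 7.4, 30 min at 4 °C, then with human buffy coat 30 min at 4 °C. After erythrocyte lysis/fixation, bound BSSL on CD14+ monocytes detected by labelled streptavidin via flow cytometry.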

Biotinylated human BSSL [7] = target: T2, Biotinylated human BSSL; experiment: flow cytometry displacement assay; 3.0 ug antibody, 1 ug b-hBSSL
In short: as §2

[8] = target: B2; experiment: SPR single cycle kinetics, captured by anti-Fab, Absolute Antibody batch
Protocol: Kinetic parameters of the hIgG4 S228P clones were determined by SPR using BIACORE® T200 (GE Healthcare). An anti-Fab antibody (GE #28958325) was immobilized on a CM5 S sensor chip by primary amine coupling using NHS-EDC chemistry. The hIgG4 antibodies were captured by the anti-Fab antibody, and subsequently, five different concentrations of hBSSL (1:5 dilutions, 0.08-50 nM) or mBSSL (1:2 dilutions, 50-800 nM) were injected over the surface. The sensor chip surface was regenerated with 10 mM glycine-HCl pH 2.1. For binding to human BSSL, single cycle kinetic data was fitted to a 1:1 binding model and kinetic parameters were retrieved using software BlAevaluation. For mouse BSSL, a steady state analysis was performed by plotting the response level at equilibrium against each concentration, and KD values were retrieved by the BlAevalution software.

Mouse BSSL, recombinant [9] = target: T1, Mouse BSSL, recombinant; experiment: SPR steady state, hIgG4 S228P captured by anti-Fab; in-house production batch (Example 9); Table 12 marks this value # as unreliable
Protocol: Kinetic parameters of the hIgG4 S228P clones were determined by SPR using BIACORE® T200 (GE Healthcare). Single cycle kinetics was used to measure the affinity of the purified hIgG4 molecules to human and mouse BSSL. An anti-Fab antibody (GE Healthcare, #28958325) was immobilized on a CM5 S sensor chip by primary amine coupling using NHS-EDC chemistry. hIgG4 was captured by the anti-Fab antibody, and subsequently, five different concentrations of hBSSL (1:5 dilutions starting from 50 nM) or mBSSL (1:5 dilutions starting from 500 nM) were injected over the surface. The sensor chip surface was regenerated with 10 mM glycine-HCl pH 2.1. For binding to human BSSL, single cycle kinetic data was fitted to a 1:1 binding model and kinetic parameters were retrieved using software BlAevaluation. For mouse BSSL, a steady state analysis was performed by plotting the response level at equilibrium against each concentration, and KD values were retrieved by the BlAevalution software.

Mouse BSSL, recombinant [10] = target: T1, Mouse BSSL, recombinant; experiment: HTRF competition
[11] = target: B2; experiment: SPR kinetic screen, single concentration (estimated)
[12] = target: B2; experiment: SPR single cycle kinetics, scFv captured by anti-FLAG M2
[13] = target: B2; experiment: ELISA, hBSSL directly coated at 1 µg/ml, detection HRP anti-FLAG M2, A450

Binder: B1
Kd (Mouse BSSL, recombinant [1]): 361 nM | Kd [2]: 0.91 nM

Binder: B2
IC50 (AS20 scFv): ~2 nM

Binder: B3
BSSL hydrolysis of triglycerides, relative value (no antibody = 100%); 0.19 ug antibody [3]: 109% | BSSL hydrolysis of triglycerides, relative value (no antibody = 100%); 0.38 ug antibody [3]: 123% | BSSL hydrolysis of triglycerides, relative value (no antibody = 100%); 0.75 ug antibody [3]: 129% | BSSL hydrolysis of triglycerides, relative value (no antibody = 100%); 1.5 ug antibody [3]: 120% | BSSL hydrolysis of triglycerides, relative value (no antibody = 100%); 3.0 ug antibody [3]: 99.2% | BSSL hydrolysis of triglycerides, relative value (no antibody = 100%); 6.0 ug antibody [3]: 104% | BSSL hydrolysis of cholesterol esters, relative value (no antibody = 100%); 0.19 ug antibody [4]: 94.8% | BSSL hydrolysis of cholesterol esters, relative value (no antibody = 100%); 0.38 ug antibody [4]: 97.2% | BSSL hydrolysis of cholesterol esters, relative value (no antibody = 100%); 0.75 ug antibody [4]: 93.9% | BSSL hydrolysis of cholesterol esters, relative value (no antibody = 100%); 1.5 ug antibody [4]: 95.3% | BSSL hydrolysis of cholesterol esters, relative value (no antibody = 100%); 3.0 ug antibody [4]: 99% | BSSL hydrolysis of cholesterol esters, relative value (no antibody = 100%); 6.0 ug antibody [4]: 90.5% | Kd [5]: 1.2 nM | percentage reduction of b-hBSSL binding to CD14+ monocytes (Biotinylated human BSSL [6]): 52% | percentage reduction of b-hBSSL binding to CD14+ monocytes (Biotinylated human BSSL [7]): 61% | Kd [8]: 1.2 nM | Kd (Mouse BSSL, recombinant [9]): 111 nM

Binder: B4
fold lower affinity than for human BSSL (Mouse BSSL, recombinant [10]): ~100 fold | Kd [11]: 2 nM | Kd [12]: 0.6 nM | koff [12]: 0.00012 s⁻¹ | kon [12]: 190000 M⁻¹ s⁻¹ | EC50 (read off the curve) [13]: ~0.02 µg/mL
